This passage reports screen value results from paper PMC11216086, “The structure of TRAF7 coiled-coil trimer provides insight into its function in zebrafish embryonic development” (Journal of Molecular Cell Biology, 2024).

B1: TrxA-tagged wild-type human TRAF7 CC (fragment 270–379 aa) [human] / itself (parent)
chain: GNQDTYETHLETCRFEGLKEFLQQTDDRFHEMHVALAQKDQEIAFLRSMLGKLSEKIDQLEKSLELKFDVLDENQSKLSEDLMEFRRDASMLNDELSHINARLNMGILGS

Variants of B1 are the subject of this experiment. As to the kind of experiment: SEC-MALS (self-association / trimerisation). Conditions: with itself; TrxA-tagged at the N-terminus; theoretical molecular weight of the WT trimer is 84.9 kDa. In general terms: Size exclusion chromatography separates by hydrodynamic size, large species first.
For chain 1 L78R, the screen value came to 63.5 kDa.

With chain 1 L53R, the screen value is 49.5 kDa.
